Measured values from patent publication US20140294821.

Experiments:
[1] = test system: rBDD FVIII (recombinant B-domain deleted FVIII lacking Fc moieties)
[2] = test system: rFVIIIFc (recombinant B-domain deleted human FVIII-Fc monomer hybrid), drug substance
[3] = test system: single chain rFVIIIFc (purified non-processed isoform of rFVIIIFc)

activated Factor IX
FXa generation rate (nM/min) against FIXa concentration (Xase complex on phospholipid vesicles) [1]: BDD FVIII (triangles, solid Kd fits, two runs): rate rises from about 0.2 nM/min at about 0.25 nM FIXa to about 2.5 to 2.7 nM/min at about 5.6 nM, points at 8 nM about 2.0 to 2.1; the fits still rise at 8 nM (about 2.5 to 2.6), no upper plateau in the range shown | Km (nM) (called Kd in the text) of FXa generation rate as a function of FIXa concentration (thrombin-activated FVIII, 25% PS-75% PC vesicles) [1]: 2.5 nM | Vmax (nM/min) of FXa generation rate as a function of FIXa concentration [1]: 4 nM/min | FXa generation rate (nM/min) against FIXa concentration (Xase complex on phospholipid vesicles) [2]: FVIIIFc (circles, dashed Kd fits, two runs): rate rises from about 0.2 nM/min at about 0.25 nM FIXa to about 2.8 to 3.2 nM/min at 4 to 8 nM; the fits still rise at 8 nM (about 3.3), no upper plateau in the range shown

activated protein C
FXa generation rate after thrombin activation and incubation with APC [1]: Treatment with APC for 90 min led to a significant decrease in FXa generation rates, similar to non-activated samples, and these results were similar for rFVIIIFc DS, rBDD FVIII, and single chain rFVIIIFc | FXa generation rate after thrombin activation and incubation with APC [2]: Treatment with APC for 90 min led to a significant decrease in FXa generation rates, similar to non-activated samples, and these results were similar for rFVIIIFc DS, rBDD FVIII, and single chain rFVIIIFc | FXa generation rate after thrombin activation and incubation with APC [3]: Treatment with APC for 90 min led to a significant decrease in FXa generation rates, similar to non-activated samples, and these results were similar for rFVIIIFc DS, rBDD FVIII, and single chain rFVIIIFc

human α-thrombin
loss of SPR response of vWF-bound rBDD FVIII after α-thrombin (double reference-subtracted release phase) [1]: response falls faster and deeper with rising α-thrombin (0.005 to 20 U/mL): at 20 U/mL to about -415 RU at 120 s at 25 °C and to about -425 RU at 37°C; the lowest concentrations stay within about -60 RU of 0 | release rate (RU/s) of rBDD FVIII from immobilized vWF against time, by α-thrombin concentration [1]: peak release rate grows and comes earlier with rising α-thrombin: uppermost trace (20 U/mL) peaks at about 105 RU/s near 2 s at 25 °C and at about 157 RU/s near 2 s at 37 °C | release rate (RU/s) of rFVIIIFc from immobilized vWF against time, by α-thrombin concentration [2]: peak release rate grows and comes earlier with rising α-thrombin: uppermost trace (20 U/mL) peaks at about 145 RU/s near 3 s at 25 °C and at about 205 RU/s near 2 s at 37 °C | release rate (RU/s) of SC rFVIIIFc from immobilized vWF against time, by α-thrombin concentration [3]: peak release rate grows with rising α-thrombin: uppermost trace (20 U/mL) peaks at about 112 RU/s near 3 s at 37°C; the 25 °C panel as drawn peaks at about 145 RU/s near 3 s and looks the same as the rFVIIIFc 25 °C panel, which does not agree with Figure 16E (about 82 RU/s at 20 U/mL)
